This is an account of results in patent publication US7612163B1, “Prokineticin 2β peptide and its use” (Janssen Pharmaceutica N.V., priority 2004, dated 2009).

In experiment [1] the target is T1, PKR2 (Homo sapiens, UniProt Q8NFJ6). Kind of experiment: cAMP accumulation (cAMP [125I] FlashPlate) in HEK 293 cells co-expressing PKR2/Gs. The class given is cell-based. On the set-up: The full-length cDNA coding regions for both PKR1 and PKR2 were PCR-amplified from human fetal brain cDNA; expressed in transfected cells; host or cells: HEK293 (transient, pCIneo, co-transfected with Gs plasmid). Conditions: FIG. 8C. As for the experimental part: FIGS. 8B and 8C illustrate results from HEK 293 cells co-expressing PKR1/Gs (FIG. 8B) or PKR2/Gs (FIG. 8C) stimulated with different PKs at various concentrations (the accumulated cAMP was measured by a cAMP [^125I] FlashPlate Assay kit; the results are mean values (±S.E.M) of triplicate experiments (legend: ▪, PK1; ▴, PK2; ▾, PK2β)).
T1 sequence (Q8NFJ6 whole entry): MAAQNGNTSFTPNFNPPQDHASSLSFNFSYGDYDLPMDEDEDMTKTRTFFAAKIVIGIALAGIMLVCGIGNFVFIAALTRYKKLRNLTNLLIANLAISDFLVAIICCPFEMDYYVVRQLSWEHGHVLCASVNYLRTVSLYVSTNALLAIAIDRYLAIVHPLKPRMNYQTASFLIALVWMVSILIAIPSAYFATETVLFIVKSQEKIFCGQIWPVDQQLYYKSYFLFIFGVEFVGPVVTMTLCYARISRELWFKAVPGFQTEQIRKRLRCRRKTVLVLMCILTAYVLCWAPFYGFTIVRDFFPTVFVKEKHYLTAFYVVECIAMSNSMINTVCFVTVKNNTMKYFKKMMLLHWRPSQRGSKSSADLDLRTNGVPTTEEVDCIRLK
In a different experiment, PKR1 and PKR2 in the expression vector pCIneo (Promega) were co-transfected with the Gs expression plasmid into HEK293 cells using LipofectAmine (Invitrogen). Two days after transfection, cells were detached with 10 mM EDTA in PBS, resuspended in Dulbecco's Modified Eagle's Medium/F12 (DMEM/F12) media, and then plated on 96-well plates at a density of 50,000 cells per well. Two hours after the seeding, cells culture medium was replaced with DMEM/F12 containing 2 mM isobutylmethylxanthine (Sigma) and incubated for 30 min. Different concentrations of PK1, PK2 or PK2β were added to cells and incubated for an additional 30 min in a final volume of 200 μl/well. The reaction was stopped and cAMP was extracted by adding 20 μl of 0.5 N HCl to each well. Cell culture media were tested for cAMP concentrations by the cAMP [^125I] FlashPlate Assay kit (PerkinElmer) as described by the manufacturer.
For orientation: Cyclic AMP is a second messenger, typically raised through Gs and lowered through Gi signalling.

Experiment [2] addresses T2, PKR1 (Homo sapiens, UniProt Q8TCW9). Kind of experiment: Radioligand competition binding assay (125I-PK2-f), PKR1 expressing COS-7 cells. On the set-up: The full-length cDNA coding regions for both PKR1 and PKR2 were PCR-amplified from human fetal brain cDNA; expressed in transfected cells; host or cells: COS-7 (transient, pCIneo). Conditions: FIG. 4A. As for the experimental part:
(§1) FIGS. 4A and 4B graphically illustrate that PKs bind the PKR1 and PKR2 with different affinities. COS-7 cells transiently expressing PKR1 or PKR2 were seeded to 96-well plates. ^125I-labeled PK2-f was added to each well at a final concentration of 100 pM. Different concentrations of PK1, PK2 or PK2β were added to the assays as the competitors. All assays were performed in triplicates. The results are mean values (±S.E.M) of triplicates. FIG. 4A provides the results of the binding assay using PKR1 expressing cells.
(§2) Expression, purification, and iodination of C-terminal FLAG-tagged PK2. C-terminal FLAG-tagged PK2 (PK2-f) was constructed as described (Soga et al., 2002). Two primers P9: ATCGAGAATTCGCCACCATGAGGAGCCTGTGCTGCGCCC (SEQ.ID.NO.:11) and P10: GGATCCCTACTTATCGTCGTCATCCTTATAATCCTTTTGGGCTAAACA (SEQ.ID.NO.:12) were used to amplify human whole brain cDNA (Clontech). The PCR-amplified PK2-f was cloned into a mammalian expression vector pCMV-sport1 (Invitrogen). The resulting clones were sequenced to confirm the identities and transfected into COS-7 cells using LipofectAmine (Invitrogen). Three days after transfection, the cell culture supernatant was collected and run through an ANTI-FLAG M2 agarose (Sigma) affinity column. The column was washed with PBS and eluted with […] Glycine HCl, pH 3.0. The eluted protein fraction was immediately neutralized with 1 M Tris-HCl, pH 8.0 and then further purified by reverse-phase HPLC using a C4 column (Vydac). The purified recombinant PK2-f protein was iodinated using Iodogen reagent (Pierce, Rockford, Ill.) and ^125I-NaI (PerkinElmer, Boston, Mass.) as described by Pierce. The iodinated PK2-f was purified by a G-50 (Amersham Pharmacia Biotech) gel filtration column.
(§3) Radio-Ligand Binding Assays. PKR1 and PKR2 in the expression vector pCIneo (Promega) were transfected into COS-7 cells using LipofectAmine (Invitrogen). […] After the plates were washed three times with ice cold PBS, Microscint-40 (Packard, Meriden, Conn.) was added and the plates were counted on a Topcount (Packard).
A general note: Loss of bound radioactivity is the signal in a displacement assay; it reports binding, not function.

Experiment [3] addresses T1, PKR2. Kind of experiment: Radioligand competition binding assay (125I-PK2-f), PKR2 expressing COS-7 cells. On the set-up: The full-length cDNA coding regions for both PKR1 and PKR2 were PCR-amplified from human fetal brain cDNA; expressed in transfected cells; host or cells: COS-7 (transient, pCIneo). Conditions: FIG. 4B. As for the experimental part: as §1, §2, §3
The target of experiment [4] is T2, PKR1. Kind of experiment: Intracellular Ca2+ mobilization (FLIPR, Fluo-3) in PKR1 expressing HEK 293 cells. Also noted: The full-length cDNA coding regions for both PKR1 and PKR2 were PCR-amplified from human fetal brain cDNA; expressed in transfected cells; (transient, pCIneo). The class given is cell-based. As for the experimental part:
(§4) FIGS. 5A and 5B graphically illustrate that PKs stimulate Ca^2+ mobilization in HEK 293 cells expressing PKR1 or PKR2 at different potencies. HEK 293 cells transiently expressing PKR1 or PKR2 were seeded in 96-well plates, loaded with Ca^2+ dye Fluo-3 and then stimulated with different concentrations of PK1, PK2 or PK2β. The release of Ca^2+ was measured with a fluorescence imaging plate reader (FLIPR). The results are mean values (±S.E.M) of triplicate experiments. […] FIG. 5B provides the results for Ca^2+ mobilization in PKR2 expressing cells (legend: ▪, PK1; ▴, PK2; ▾, PK2β).
(§5) Intracellular Ca^2+ Mobilization Assays. PKR1 and PKR2 in the expression vector pCIneo (Promega) were transfected into HEK293 cells using LipofectAmine (Invitrogen). Two days after transfection, cells were detached using PBS containing 10 mM EDTA and seeded in poly-D-lysine coated 96-well black tissue culture plates (BD Biosciences).
Background: Calcium flux is commonly read through the fluorescence of an indicator in the cells.

In experiment [5] the target is T1, PKR2. Kind of experiment: Intracellular Ca2+ mobilization (FLIPR, Fluo-3) in PKR2 expressing HEK 293 cells. The experiment is classed as cell-based. Also noted: The full-length cDNA coding regions for both PKR1 and PKR2 were PCR-amplified from human fetal brain cDNA; expressed in transfected cells; (transient, pCIneo). How it is done:
as §4, §5

T2 sequence (Q8TCW9 whole entry): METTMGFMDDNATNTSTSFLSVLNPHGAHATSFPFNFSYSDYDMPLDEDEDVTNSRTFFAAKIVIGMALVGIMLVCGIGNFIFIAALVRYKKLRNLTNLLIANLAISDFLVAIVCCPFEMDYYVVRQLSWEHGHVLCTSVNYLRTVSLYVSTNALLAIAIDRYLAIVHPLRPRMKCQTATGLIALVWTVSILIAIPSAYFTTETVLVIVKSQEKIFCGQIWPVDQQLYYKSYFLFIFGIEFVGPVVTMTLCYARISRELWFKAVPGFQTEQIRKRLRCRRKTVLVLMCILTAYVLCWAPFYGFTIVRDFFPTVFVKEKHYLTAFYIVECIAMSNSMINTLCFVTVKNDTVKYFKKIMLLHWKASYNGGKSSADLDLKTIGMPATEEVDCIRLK

For “AVITGACDKDSQCGGGMCCAVSIWVK SIRICTPMGKLGDSCHPLTRKNNFGNGRQE (AVITGACDKDSQCGGGMCCAVSIWVKSIRICTPMGKLGDSCHPLTRKNNFGNGRQE; listed as Homo sapiens) [PK2β, 56-amino acid mature peptide processed from PK2L pro-peptide by proteolytic (furin) cleavage; recombinant from COS-7 cells]”, the “cAMP accumulation in PKR2 expressing HEK293 cells, in words” value with PKR2 [1] is “marginal activity at high concentrations”. The “Binding to PKR1, in words” value in the experiment with PKR1 [2] is “high affinities”. Moreover, in the experiment with PKR2 [3], the “Binding to PKR2, in words” value was “marginal active at high concentrations”. Also, in the experiment with PKR1 [4], the “Agonist character at PKR1, in words” value is listed as “potent full agonist”. Also, the “Receptor selectivity in Ca2+ mobilization, in words” value in the experiment with PKR2 [5] (PKR1 versus PKR2, FIGS. 5A, 5B) is reported as “only active at PKR1”. Also, the “Ca2+ response potency in PKR2-expressing cells, fold less potent than PK1 and PK2” value in the experiment with PKR2 [5] (relative to PK1 and PK2) was “approximately 50 fold”.
